These results are taken from article PMC5656594, “Probing Resistance Mutations in Retroviral Integrases by Direct Measurement of Dolutegravir Fluorescence”.

The data set has as its target PFV integrase wt (INPFV) (prototype foamy virus, UniProt P14350 752-1143). Kind of data set: fluorescence anisotropy; 1 mM Mg2+; stoichiometric IN + DNA; 20 mM Tris pH 7.2, 50 mM NaCl, 1 mM DTT, 10% DMSO, 1 mM (or 10 mM) Mg2+, 25 °C. The note with it: protein: recombinant, tags: His-tag, chain copies: 4.

B1: Fl-DNA#13 (processed LTR end) (dsDNA)
DNA 1: TATACAAAATTCCATGACA
DNA 2: ATTGTCATGGAATTTTGTATA
For B1, the binding result (label: fluorescein, 5' overhang 2 nt on non-transferred strand) is recorded as “binds”.

B2: Fl-DNA#9 (dsDNA)
DNA 1: GGAATCTAGCGGCGCATAGGT
DNA 2: ACCTATGCGCCGCTAGATTCC
For B2, the binding result (label: fluorescein, blunt) is reported as “binds”.

B3: Fl-DNA#8 (dsDNA)
DNA 1: GGAATCTAGCGGCGCATCAAT
DNA 2: ATTGATGCGCCGCTAGATTCC
Take B3: the binding result (label: fluorescein, blunt) is recorded as “binds”.

B4: Fl-PFVCAAT (Fl-DNA#1) (dsDNA)
DNA 1: TATACAAAATTCCATGACAAT
DNA 2: ATTGTCATGGAATTTTGTATA
As for B4, the binding result (label: 5'-fluorescein on reactive strand, blunt) was “binds”.
